We go through one molecule from CN105968202A (UNIV NANCHANG, dated 2016).

Assay [1] concerns the target T1, PSMA胞外区蛋白 (重组表达的前列腺特异性膜抗原膜外区) (UniProt Q04609 44-750, limits assumed).
T1 construct: extracellular domain; Expressed from vector pRAG2a in HEK-293 cells, purified with HisTrap FF Crude and detected with anti-His antibody, so it carries a His tag; also called PSMA蛋白; PSMA抗原
Kind of assay: indirect phage-ELISA, PSMA extracellular region coated at 5 μg/mL, HRP-anti-M13 detection (ELISA-positive clone).

The target of assay [2] is T2, PSMA on LNCaP cells (前列腺癌细胞LNCaP表达PSMA) (UniProt Q04609 1-750, limits assumed).
T2 construct: whole, on cells; Endogenous PSMA on fixed LNCaP cells; PSMA-negative MKN45 gastric cancer cells served as the negative cell line; also called 前列腺特异性膜抗原
T2 sequence (Q04609 whole entry): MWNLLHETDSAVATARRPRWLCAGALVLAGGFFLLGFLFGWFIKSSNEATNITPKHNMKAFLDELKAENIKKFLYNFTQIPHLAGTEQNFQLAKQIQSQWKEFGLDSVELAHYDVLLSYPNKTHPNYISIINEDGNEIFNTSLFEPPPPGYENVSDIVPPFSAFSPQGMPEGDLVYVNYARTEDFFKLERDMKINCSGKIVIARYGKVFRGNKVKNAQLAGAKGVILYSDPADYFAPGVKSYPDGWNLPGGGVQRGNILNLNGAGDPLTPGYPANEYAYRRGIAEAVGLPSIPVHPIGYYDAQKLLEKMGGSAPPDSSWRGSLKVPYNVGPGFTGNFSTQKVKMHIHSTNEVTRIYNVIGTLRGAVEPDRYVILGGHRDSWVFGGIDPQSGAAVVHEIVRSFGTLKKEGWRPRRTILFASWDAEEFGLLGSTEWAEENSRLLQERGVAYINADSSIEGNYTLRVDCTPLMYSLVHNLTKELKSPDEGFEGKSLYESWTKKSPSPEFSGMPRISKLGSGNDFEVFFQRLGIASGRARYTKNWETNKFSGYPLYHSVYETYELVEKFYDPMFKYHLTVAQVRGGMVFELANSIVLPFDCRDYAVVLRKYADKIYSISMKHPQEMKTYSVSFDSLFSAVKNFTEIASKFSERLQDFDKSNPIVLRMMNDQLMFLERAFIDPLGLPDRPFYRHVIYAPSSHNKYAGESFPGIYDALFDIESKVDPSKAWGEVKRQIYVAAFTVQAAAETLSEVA
Put plainly: cell ELISA (HRP-anti-M13, OD450) and immunofluorescence (anti-M13 + FITC secondary) on fixed LNCaP cells versus PSMA-negative MKN45 cells. In general terms: In an ELISA, binding on a coated surface is turned into a signal by an enzyme label.

T1 sequence (Q04609 44-750 limits assumed): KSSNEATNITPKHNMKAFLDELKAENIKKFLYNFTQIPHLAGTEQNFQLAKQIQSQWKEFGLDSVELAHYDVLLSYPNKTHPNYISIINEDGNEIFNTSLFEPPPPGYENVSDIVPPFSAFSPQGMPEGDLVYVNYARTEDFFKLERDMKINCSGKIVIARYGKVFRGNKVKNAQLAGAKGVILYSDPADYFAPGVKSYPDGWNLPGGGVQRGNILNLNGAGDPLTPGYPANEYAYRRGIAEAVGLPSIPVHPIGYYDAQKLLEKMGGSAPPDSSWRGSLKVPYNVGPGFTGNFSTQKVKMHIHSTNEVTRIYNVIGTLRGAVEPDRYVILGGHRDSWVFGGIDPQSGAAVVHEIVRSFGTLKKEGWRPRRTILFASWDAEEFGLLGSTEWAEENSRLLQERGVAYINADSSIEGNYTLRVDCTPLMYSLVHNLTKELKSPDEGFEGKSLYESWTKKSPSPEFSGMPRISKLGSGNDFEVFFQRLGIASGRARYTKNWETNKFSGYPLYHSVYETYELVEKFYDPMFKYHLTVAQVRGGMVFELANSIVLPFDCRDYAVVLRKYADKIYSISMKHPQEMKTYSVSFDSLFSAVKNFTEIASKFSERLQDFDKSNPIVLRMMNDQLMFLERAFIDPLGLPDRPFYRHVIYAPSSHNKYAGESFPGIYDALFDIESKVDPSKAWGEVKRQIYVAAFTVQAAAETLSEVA

B1: 抗前列腺特异性膜抗原单域重链抗体噬菌体阳性克隆 (VHH)
VHH: QVQLVESGGGLVQAGGSLRLSCVVSGRAFRRYAMGWFRQAPGKEREFVAAIRRSRSTYYADSVKGRFTISRDNAKKTVYLQMNSLKPEDTAVYYCAADPVDSVYNTLRAWGYWGQGTQVTVSS
notes: The phage coat protein fusion partner and any linker are not described; also called 针对前列腺特异性膜抗原的单域重链抗体阳性克隆; 展示本发明所述纳米抗体的噬菌体克隆
As to B1, the binding result in assay [1] and in assay [2] was “binds” each time.
